Experimental data from patent US20190359687A1 (Bayer, published 2019).

T1: human glycophorin A on human red blood cells or red blood cell membranes (human, UniProt P02724 20-150)
T1 construct: whole, on cells; also called hRBC; human RBC membranes
T1 sequence (looked up): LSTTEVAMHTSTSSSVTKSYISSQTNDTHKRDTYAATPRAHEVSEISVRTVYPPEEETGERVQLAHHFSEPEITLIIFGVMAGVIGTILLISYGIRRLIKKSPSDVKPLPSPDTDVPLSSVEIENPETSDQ

T2: native human glycophorin A protein (human, UniProt P02724 20-150)
T2 construct: mature; also called Hu-nat GPA
T2 sequence (looked up): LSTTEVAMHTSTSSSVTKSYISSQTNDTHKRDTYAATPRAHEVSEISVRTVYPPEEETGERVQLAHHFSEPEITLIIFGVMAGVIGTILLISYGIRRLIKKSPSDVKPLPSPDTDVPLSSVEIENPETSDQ

T3: recombinant human glycophorin A ectodomain protein (human, UniProt P02724 20-91)
T3 construct: 72 amino acids of the extracellular region; also called Hu-rec GPA
T3 sequence: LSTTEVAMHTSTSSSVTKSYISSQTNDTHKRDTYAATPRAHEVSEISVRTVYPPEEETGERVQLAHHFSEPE


Key:
[1] = target: T1, human glycophorin A on human red blood …; assay: ELISA, Fab on coated human RBC membranes
Protocol: These membranes are prepared by first isolating red blood cells from citrated whole blood. Citrated whole blood is layered on to Ficol and centrifuged at low speed for 20 minutes to pellet the red blood cells. The supernatant containing plasma and other blood cells is discarded and the red blood cell pellet is subsequently washed 3 times in 10 cell volumes of phosphate buffered saline (PBS). A 10 ml pellet of purified red blood cells is resuspended in 30 ml of cold low osmorality 20 mM phosphate buffer (pH7.4) and incubated for 30 mins to break open the RBC. After Centrifugation at 10,000 rpm for 30 min at 5° C. the hemoglobin containing supernatant is discarded. To the membrane pellet another 30 ml of 20 mM phosphate buffer is added and the sample centrifuged again at 10,000 rpm for 30 min at 5° C. to pellet the membrane fraction. This wash and centrifugation step is repeated another 4 times. The red blood cell membranes are then resuspended in 20 mL of PBS to achieve an equivalent of approximately 2.5E9 cells/mL and stored frozen at −20° C. Binding of antibodies to RBC ghost can be measured by ELISA in which the RBC ghost suspension (5×10⁶ in 100 ul PBS) was added to each well of flat bottom 96-well ELISA microtiter plates (2HB, Immunolon) and the plates incubated overnight at 4° C. The plates were blocked with Starting blocking buffer (Thermo Fisher) for 2 hours at room temperature (RT). Antibodies or other test molecules were added to each well and incubated for 1.5 hours at RT. After 4 washes 100 ul of an appropriate detection antibody was added to each well and incubated for 1 hour at RT. After 4 washes the detection antibody was measured using appropriate detection reagents.

[2] = target: T2, native human glycophorin A protein; assay: ELISA, Fab on coated native human GPA
[3] = target: T4, Cynomolgus monkey recombinant glycophorin A ectodomain (Cynomolgus monkey); assay: ELISA, Fab on coated recombinant cyno GPA ectodomain
T4 construct: extracellular domain

[4] = target: T3, recombinant human glycophorin A …; assay: ELISA, Fab on coated recombinant human GPA ectodomain

binding in ELISA relative to parental Fab [1]	binding in ELISA relative to parental Fab [2]	binding in ELISA relative to parental Fab [3]	binding in ELISA relative to parental Fab [4]	Binder
0.9 relative to parental Fab	1 relative to parental Fab	1 relative to parental Fab	1.1 relative to parental Fab	TPP-5704, Hu6C12-24 Fab variant VL: (N91D) (Fab, V domains shown, Built on the parental Fab TPP-4935) VH: EVQLVQSGAEVKKPGASVKVSCKASGYTFTTYTIHWVRQAPGQGLEWIGYINPSSDYTRYNPKFKDRVTLTTDKSTSTAYMELRSLRSDDTAVYYCQTGTRDYWGQGTTVTVSS VL: DIQLTQSPSFLSASVGDRVTITCSAASSVSYIYWFQQKPGKAPKLLIYSTSTLPSGVPSRFSGSGSGTEYTLTISSLQPEDFATYYCHQRDSFPFTFGQGTKLEIKR
4.7 relative to parental Fab	4.6 relative to parental Fab	1 relative to parental Fab	3.9 relative to parental Fab	TPP-5701, Hu6C12-24 Fab variant VL: (S49A, P54Q, F95Y) (Fab, V domains shown, Built on the parental Fab TPP-4935) VH: EVQLVQSGAEVKKPGASVKVSCKASGYTFTTYTIHWVRQAPGQGLEWIGYINPSSDYTRYNPKFKDRVTLTTDKSTSTAYMELRSLRSDDTAVYYCQTGTRDYWGQGTTVTVSS VL: DIQLTQSPSFLSASVGDRVTITCSAASSVSYIYWFQQKPGKAPKLLIYATSTLQSGVPSRFSGSGSGTEYTLTISSLQPEDFATYYCHQRNSFPYTFGQGTKLEIKR
2.5 relative to parental Fab	2.5 relative to parental Fab	1.2 relative to parental Fab	2.4 relative to parental Fab	TPP-5700, Hu6C12-24 Fab variant VL: (S24R, A26S, F95Y) (Fab, V domains shown, Built on the parental Fab TPP-4935) VH: EVQLVQSGAEVKKPGASVKVSCKASGYTFTTYTIHWVRQAPGQGLEWIGYINPSSDYTRYNPKFKDRVTLTTDKSTSTAYMELRSLRSDDTAVYYCQTGTRDYWGQGTTVTVSS VL: DIQLTQSPSFLSASVGDRVTITCRASSSVSYIYWFQQKPGKAPKLLIYSTSTLPSGVPSRFSGSGSGTEYTLTISSLQPEDFATYYCHQRNSFPYTFGQGTKLEIKR
0.7 relative to parental Fab	2.1 relative to parental Fab	0.9 relative to parental Fab	1.1 relative to parental Fab	TPP-5703, Hu6C12-24 Fab variant VL: (N91S) (Fab, V domains shown, Built on the parental Fab TPP-4935) VH: EVQLVQSGAEVKKPGASVKVSCKASGYTFTTYTIHWVRQAPGQGLEWIGYINPSSDYTRYNPKFKDRVTLTTDKSTSTAYMELRSLRSDDTAVYYCQTGTRDYWGQGTTVTVSS VL: DIQLTQSPSFLSASVGDRVTITCSAASSVSYIYWFQQKPGKAPKLLIYSTSTLPSGVPSRFSGSGSGTEYTLTISSLQPEDFATYYCHQRSSFPFTFGQGTKLEIKR

More lines, now with the values behind:

Binder	binding in ELISA relative to parental Fab [1]	binding in ELISA relative to parental Fab [2]	binding in ELISA relative to parental Fab [3]	binding in ELISA relative to parental Fab [4]
TPP-5674, Hu6C12-24 Fab variant VH: (I48M, L70M) (Fab, V domains shown, Built on the parental Fab TPP-4935) VH: EVQLVQSGAEVKKPGASVKVSCKASGYTFTTYTIHWVRQAPGQGLEWMGYINPSSDYTRYNPKFKDRVTMTTDKSTSTAYMELRSLRSDDTAVYYCQTGTRDYWGQGTTVTVSS VL: DIQLTQSPSFLSASVGDRVTITCSAASSVSYIYWFQQKPGKAPKLLIYSTSTLPSGVPSRFSGSGSGTEYTLTISSLQPEDFATYYCHQRNSFPFTFGQGTKLEIKR	0.7 relative to parental Fab	1.4 relative to parental Fab	1.1 relative to parental Fab	1.5 relative to parental Fab
TPP-5696, Hu6C12-24 Fab variant VH: (D66G, L70M) (Fab, V domains shown, Built on the parental Fab TPP-4935) VH: EVQLVQSGAEVKKPGASVKVSCKASGYTFTTYTIHWVRQAPGQGLEWIGYINPSSDYTRYNPKFKGRVTMTTDKSTSTAYMELRSLRSDDTAVYYCQTGTRDYWGQGTTVTVSS VL: DIQLTQSPSFLSASVGDRVTITCSAASSVSYIYWFQQKPGKAPKLLIYSTSTLPSGVPSRFSGSGSGTEYTLTISSLQPEDFATYYCHQRNSFPFTFGQGTKLEIKR	1 relative to parental Fab	1.3 relative to parental Fab	1.2 relative to parental Fab	1.2 relative to parental Fab
TPP-5697, Hu6C12-24 Fab variant VH: (D66G, L70M, T72R) (Fab, V domains shown, Built on the parental Fab TPP-4935) VH: EVQLVQSGAEVKKPGASVKVSCKASGYTFTTYTIHWVRQAPGQGLEWIGYINPSSDYTRYNPKFKGRVTMTRDKSTSTAYMELRSLRSDDTAVYYCQTGTRDYWGQGTTVTVSS VL: DIQLTQSPSFLSASVGDRVTITCSAASSVSYIYWFQQKPGKAPKLLIYSTSTLPSGVPSRFSGSGSGTEYTLTISSLQPEDFATYYCHQRNSFPFTFGQGTKLEIKR	1.1 relative to parental Fab	1.2 relative to parental Fab	1.2 relative to parental Fab	1.3 relative to parental Fab
TPP-5695, Hu6C12-24 Fab variant VH: (L70M, T72R) (Fab, V domains shown, Built on the parental Fab TPP-4935) VH: EVQLVQSGAEVKKPGASVKVSCKASGYTFTTYTIHWVRQAPGQGLEWIGYINPSSDYTRYNPKFKDRVTMTRDKSTSTAYMELRSLRSDDTAVYYCQTGTRDYWGQGTTVTVSS VL: DIQLTQSPSFLSASVGDRVTITCSAASSVSYIYWFQQKPGKAPKLLIYSTSTLPSGVPSRFSGSGSGTEYTLTISSLQPEDFATYYCHQRNSFPFTFGQGTKLEIKR	0.9 relative to parental Fab	0.9 relative to parental Fab	1.1 relative to parental Fab	1 relative to parental Fab
TPP-5698, Hu6C12-24 Fab variant VL: (S24R, A26S) (Fab, V domains shown, Built on the parental Fab TPP-4935) VH: EVQLVQSGAEVKKPGASVKVSCKASGYTFTTYTIHWVRQAPGQGLEWIGYINPSSDYTRYNPKFKDRVTLTTDKSTSTAYMELRSLRSDDTAVYYCQTGTRDYWGQGTTVTVSS VL: DIQLTQSPSFLSASVGDRVTITCRASSSVSYIYWFQQKPGKAPKLLIYSTSTLPSGVPSRFSGSGSGTEYTLTISSLQPEDFATYYCHQRNSFPFTFGQGTKLEIKR	0.6 relative to parental Fab	1.6 relative to parental Fab	1 relative to parental Fab	1.7 relative to parental Fab
TPP-5677, Hu6C12-24 Fab variant VH: (I48M, D66G, L70M) (Fab, V domains shown, Built on the parental Fab TPP-4935) VH: EVQLVQSGAEVKKPGASVKVSCKASGYTFTTYTIHWVRQAPGQGLEWMGYINPSSDYTRYNPKFKGRVTMTTDKSTSTAYMELRSLRSDDTAVYYCQTGTRDYWGQGTTVTVSS VL: DIQLTQSPSFLSASVGDRVTITCSAASSVSYIYWFQQKPGKAPKLLIYSTSTLPSGVPSRFSGSGSGTEYTLTISSLQPEDFATYYCHQRNSFPFTFGQGTKLEIKR	0.8 relative to parental Fab	1.8 relative to parental Fab	1.2 relative to parental Fab	1.8 relative to parental Fab
TPP-5699, Hu6C12-24 Fab variant VL: (S49A, P54Q) (Fab, V domains shown, Built on the parental Fab TPP-4935) VH: EVQLVQSGAEVKKPGASVKVSCKASGYTFTTYTIHWVRQAPGQGLEWIGYINPSSDYTRYNPKFKDRVTLTTDKSTSTAYMELRSLRSDDTAVYYCQTGTRDYWGQGTTVTVSS VL: DIQLTQSPSFLSASVGDRVTITCSAASSVSYIYWFQQKPGKAPKLLIYATSTLQSGVPSRFSGSGSGTEYTLTISSLQPEDFATYYCHQRNSFPFTFGQGTKLEIKR	3.1 relative to parental Fab	3.8 relative to parental Fab	0.8 relative to parental Fab	3.2 relative to parental Fab
TPP-5676, Hu6C12-24 Fab variant VH: (I48M, D66G) (Fab, V domains shown, Built on the parental Fab TPP-4935) VH: EVQLVQSGAEVKKPGASVKVSCKASGYTFTTYTIHWVRQAPGQGLEWMGYINPSSDYTRYNPKFKGRVTLTTDKSTSTAYMELRSLRSDDTAVYYCQTGTRDYWGQGTTVTVSS VL: DIQLTQSPSFLSASVGDRVTITCSAASSVSYIYWFQQKPGKAPKLLIYSTSTLPSGVPSRFSGSGSGTEYTLTISSLQPEDFATYYCHQRNSFPFTFGQGTKLEIKR	0.7 relative to parental Fab	1.3 relative to parental Fab	1.1 relative to parental Fab	1.5 relative to parental Fab
